Data published in paper PMC4822818, “An IRF5 Decoy Peptide Reduces Myocardial Inflammation and Fibrosis and Improves Endothelial Cell Function in Tight-Skin Mice” (PLoS ONE, 2016).

Target: T1, Recombinant IRF5 (interferon regulatory factor 5), biotin-labeled (UniProt Q13568 1-498, biotin (EZ-Link NHS-PEG4-Biotin, ratio 1:1))
T1 construct: Interferon regulatory factor 5 (IRF5), recombinant; also called B-IRF5; source: made and purified by Top Gene Technologies (Montreal, Quebec, Canada)
T1 sequence (looked up): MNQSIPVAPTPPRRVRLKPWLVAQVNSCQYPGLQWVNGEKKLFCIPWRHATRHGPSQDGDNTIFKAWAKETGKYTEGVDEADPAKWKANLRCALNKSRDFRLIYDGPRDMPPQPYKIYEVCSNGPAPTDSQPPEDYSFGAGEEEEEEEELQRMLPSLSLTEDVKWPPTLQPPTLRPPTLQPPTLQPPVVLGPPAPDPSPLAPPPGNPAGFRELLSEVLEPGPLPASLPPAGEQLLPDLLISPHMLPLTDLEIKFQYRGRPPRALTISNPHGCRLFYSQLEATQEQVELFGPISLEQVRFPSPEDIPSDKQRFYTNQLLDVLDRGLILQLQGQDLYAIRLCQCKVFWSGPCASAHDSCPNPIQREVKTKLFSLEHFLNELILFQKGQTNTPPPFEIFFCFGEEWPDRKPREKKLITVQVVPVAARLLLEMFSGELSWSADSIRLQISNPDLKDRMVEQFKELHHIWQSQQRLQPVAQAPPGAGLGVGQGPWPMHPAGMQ
Assay: BLI; Octet RED; biotin-labeled IRF5 loaded onto streptavidin biosensors in PBS for 15 min; sensors incubated in PBS with increasing concentrations of IRF5D for 10 min; n = 3
Conditions: both partners purified

In the case of Ac-ELDWDADDIRLQIDNPD-NH2 [IRF5D (Ac-ELDWDADDIRLQIDNPD-NH2), IRF5 decoy peptide], the Kd is reported as 3.72 µM.
